In the domain aggregation screens of Martell et al. (2025):

Test: soluble fraction after stress (log2 fold change); higher = more stays soluble; pooled small domains, quantitative proteomics
Settings: stress: pH 4
In short: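 High-throughput quantitative proteomics was run on pooled custom libraries of small protein domains following pH 4 stress. Fold changes are on a log2 scale; higher values mean more of a domain remained soluble. The fold change in soluble amount is taken as a measure of aggregation propensity.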

Row | Sequence | soluble fraction (log2)
1 | HMNDPIESLTPREREVLTLMAEGRTNAAIAAQLVVTEGAVEKHTQHIFAKLGLLPDSAVHRRVKAVLALLS | -0.637
2 | HMTTMYKSDVKGINYDVKAKSWFLRITFNGNQIPIGHFKTEEDAINVKQQLIPYIESKDYTSILAVKAKYS | ≥ 0.43
3 | HMSAQDLIVKTDATQVEARVLEISPEQIRYKRFSNPDGPTYVLPVDAVDYIRYANGETDSFR | -0.446
4 | HMQKLSPKQRRGNIIELIKENPTITAKNISTIFNLNQRTIERDLAKLTEEGYIKYEGSSKDGKWVFL | ≥ 0.43
5 | HMLPKILVMDGKVNKNALTTLGKDEEWVKKVLRNHNIHSIKDVLLALYDTKGKFQYQLYDDYEK | -0.019
6 | HMRSFGTLRRLPSGRYQASYAGPDLRRHAAPTTFETKLDAEGWLRDEHRMIERDEWTAPAARSQLK | 0.0606
7 | HMNSIQEQIEKYVYSLAPVTIERYESLKNGDIEDIEFEKLRKSISSKIINEKIDNKKQVAILSHLKKMYSD | -0.472
8 | HMGNASQAARRQRIVDAALELLQDRPYDQIQMRDVAEGAGVALGTLYRYFPSKEQLFAHVLVE | -0.701
9 | HMQIDRLFDIVYTLLRKKSATAAELAERFGVSKRTILRDIETLSVAGIPILTSPGKGGGVSISSSF | -0.423
10 | HMSEMLPFDEARRQFERDYLVQLLKLTSGNVSQAARLARRNRTDFYALLGRHQLEPASFKPE | -0.641
11 | HMTVSADIIQKIIKTSTTDENIITIDSISNSISKLALSKITAEDIIEILEASSLVLRNSNGSWTVL | -0.716
12 | HMALSTRERMSFVLEVLKEKEFIPFVDLFSPEEGRAGVVVTFLALMELMKDSLIEIVQTKNFGEIHVRARL | -1.07
13 | HMTLTPEQQAARRSEIVDIALRLIAENGFQKTSMREIADLAKMGKSSLYDFFKTKDEIAVYAMEKK | -0.856
14 | HMHYNMNYLENLTKTELFDLAKNKFGLTYAEMERHLSIPEGGARYAIKAEHSKYGSDIKKYLVEFLLE | -0.134
15 | HMSTTGIVKWFNEEKGFGFITQDQGGADVFVHYRAIASEGFKTLAEGQKVSFEVEQGQKGLQAANVQA | -0.948
16 | HMQVTDTGTIEGEIDKVLAANPDRVTEYHDGKEKILGWFVGQVMQTTKGKANPQMVNQLFLEKLK | -0.00465
17 | HMGLQDLFLNSLRKSKTPVTMFLVKGVKLQGVVTWFDNFSVLLRRDGMSQLVYKHSISTIMP | 0.22
18 | HMDEEVLVVQEGGERLDVFVAANAEGITRSFVQNLIKKGDVTVDGAPRKANYRLRSGQVVRFSLPEP | 0.293
19 | HMDLANLQNGQTLPLQRDVEVISIPFGKTISLSEDSVVSIMQAKGSSVSVAYEGRLYLIEGSNLDALGLEP | -0.888
20 | HMSVNAPMPGKIVNVLVSEGQKVNSGDVLLILEAMKMQNEIAATQAGTVKAINVAAGQSVKVGDALVN | -0.147
21 | HMKQYSFEISKADFKKISENFNFKIINEINDSLIISLNDKNINLDELLIFFVERKIKVRSIENI | -1.06
22 | HMTQTDINQIETLVHEGNKLAAVKLLMDTAHIGLKEAKDIIDNFFLGKQTDLQAAVAQVQTR | -0.722
23 | HMGTQIKSPMPGTILDVRVNVGDTVKEGDILMILEAMKMENEILAPVSGKVAAIQVSKGTAVNSGDLLAVL | -0.404
24 | HMSRAMFEMHADWQPTDSIRGLLGRAGLPTDIAKLDQSRIGDFVNHWFGKPDRNTADSWNGLLVGWLKRTQ | -0.787
25 | HMNDRERIGKRIAQLRMEAGISQYKLAELTGLAPGNIARIETGKYSTGIDILSKIGDALGYQLDFI | -0.414
26 | HMRININNASARQIADALPGVGLKTARDIKDFQTTLSGERYTRLDQLHSIKRVDWDEIFKADLVRV | 0.158

Row | Sequence | soluble fraction (log2)
27 | HMGGNVYAYRLTASVKSGEQIPANKIEKVKMLSSDLPTNYVPDTVNVTAYKSKLDLQAGTILSTSLLYEN | 0.247
28 | HMTTQTGTVKWFNEGKGFGFIAPDDGGKDLFAHFKEIQGTGFKTLAENQRVEFEVTQGQKGPQASKI | -0.469
29 | HMNTFKNIFIQEGDLFNLKKNDNQIIFAKEGILINENKKIFRLLNGKIISTNNNRLIGFEFDKIDYNLSN | -0.0628
30 | HMHADIAATVVATMRQLGVLGLPRNYEIFYEALSGTNRELSLAVVSLSNRPTQDDLDRIGRRFFA | -0.426
31 | HMATTIEAPMPGKILDVKVNPGQAVSYGQVVLTMEAMKMETEIVAPADGTVASVLVKSGDMVETGAALVSL | -0.268
32 | HMGTGADKNSWTIGDKVKHRKWGTGTVVKVTGAGEDAELDIAFKSEGIKRLLAAFAPIEKVK | -0.0706
33 | HMEKNILPDTSPEKQYEFATSFLKVGDYSTAERAFREFVINNSEHKLAGNAQYWYAETFRIRQ | 0.148
34 | HMDGVTEYTVKSGDSFSAIINKHYNVNYDEKLMQAVAAYNNIEDMNKLQLGQIIKLPPKEQLNL | -0.118
35 | HMSTGGDLTQRERELLGLMARGLSNQEISKRLTIAMPTVKFHVTNILAKLHADNRTEAVLVALKNKLVAL | -0.175
36 | HMSTVIENVFKNFEVYEIKKGDTFYNIEKRFGVNRQELLVLNPELKEGLKLGMVLKIKEIIP | 0.192
37 | HMNSSTVDLAKEFLIDLLSSVEKMPASEVQEEAKNAGYSVASIRRAKDNLNIKPFKDGSAWYWKLPSIFK | -0.447
38 | HMTMEFGEFLAKLRKERGYYQKEVAAYLNVTVATISNYEKNVHAPDLDTLVKLADFYDVSTDYLLQRT | -1.46
39 | HMEELTDSELNNLYRELFIARSNASDGVGIIEQKTIKGITYRLSNDNNYLIKELGNKEYIYKNGVWEEYT | 0.0623
40 | HMLGSGSKEQQLVILNNILERQVQAFNLQGGQEYPMVTLKNFYNTLSKMIENAGLKNVENYFVNPDVGKQM | -0.0872
41 | HMGTVSSGSSSTDTPFSLGEIVRHKVFGEGVVLSIEGQGDASRIQINFNTAGTKWLVTAYADLEK | -1.28
42 | HMATARPPPPPESRVEVLFDGRWYAGTVVGGALDEHRATVFFDADRLSQVINFAETGIRVLGT | -0.575
43 | HMKNIMRQWIELEPDQGKIRSKLYSLDRVVEETTNEVGMIKLLLEIDEKELNNLVSHNDIRLV | -0.625
44 | HMGGEKLPAPVAGTLLRYSVAEGARVSEGQTVIILESMKMELEINTPKAGVIHFLAAVGAQVAEGDTLAEI | -0.171
45 | HMEYSNLGEALRRLSEIDLQIILLKYSHGFSIKEISKILDIKEVNLYKRNKRALNKLKKILAEMEVLSN | -0.272
46 | HMEFQVKVIVSSLNIRSGPGTSYDTLGTVTKGDIFTIVETNSDSTWGKMQSGGWISIKDAYVKK | -0.216
47 | HMVRRSERLHALTESLRRSGNRGRTAEQLATEFEVSVRTIKRDLVALEASGLPLWSRPGPGGGYGLLS | -0.0236
48 | HMIVDYPSFVGKTKQELEKWAKENNIIIRYRQLSVTASDKVKAQLPATTTYKRIMKGSSIEVELEL | -0.749
49 | HMPKDMAKRASILTAASKLFVQHGYGGVSMDQIAAEAGVSKLTVYSHYGDKDSLFAAAVQAH | 0.163
50 | HMNAKNPRALAIQYVFKMQMGNFLHAKTDNQQQEQERIMTLFNEENKNTILPRWGKELLSYINRN | -0.208
51 | HMDVLKVFSHNVRRYRTQLGLSQETVAFRTGLHRTYISAVERGKRSISLDNIQKIADALEVETYLLFI | 0.22
52 | HMTYAQQIGARIAFLRRLKGLTLAELAERVNKHKSTISKYESGQIIIDIESLKEVADALGVDVAQIVE | 0.187

Row | Sequence | soluble fraction (log2)
53 | HMTPQNAAAVLRYLSSGAIKGVGPSTAQRIVEKFGAESLDIIQNKPEELATIRGISLSKALAVSEEYNKQY | 0.0689
54 | HMRMRPNERQKRIIELLSFRRHETIGNFANEFGVSRDTIKRDIITLQEEYPIISERGYEGGISLPDGYYI | -0.0594
55 | HMQEISQEEALATVLKDLSLTEADLKDLQITREEDKYKILFSKGQTAYDVLVSAKDGQLLQSKQETI | -0.359
56 | HMFWRKIDFYGLNLSTYRNIINIGSDYNYIYLDLGNIYKILNPITGKIIEEQDLVMNIDNINWSS | -0.105
57 | HMRLSESLLDDIPGIGAARKRALLQSFGSVRKLRHADAEEIAAKVPGIGLNFAEKIVEALRKK | 0.187
58 | HMPQTNIYPNPAFDKLFVSNLENETNFKIMDLFGRTIINSKTKGEISISELKSGIYIIEINNFRQKFVK | -0.863
59 | HMPDAIPLETIIKNVNVLAGFLINSKTFTEDDIVMAYNNIMKIKGDHTDEKTLTNDVYTLLTEMN | -1.22
60 | HMTAPELSVGDYLEYRGKEYKVESLDMDGFITLTDTALEDAPRLISRVTFLTDEFIRSGEYMVIT | -1.4
61 | HMGVPVTAPMPGKVLKVTVSVGAAVKNGDLVLVLEAMKMENEIFATANGVVKEIRSREGDTVNSGDVMMVI | -1.35
62 | HMISEGDIIKGTVIDVNEEEVILDLKYYAQGVIKAENLSNDPDFLAAGKISVGDEIEATVIKMDDGEGNIE | -0.496
63 | HMKKEETEAEELEEKFTSAQIKQAYGILNDPRYKQGNYSGAVNVINKIAPGLADHPDVKNALKRANEEL | -0.323
64 | HMDRSQRDQEQAQLIRLVQQAFDDSGQRYGAEKIRITLAEGGIRVSTKRIAAIMQELDLRSI | 0.251
65 | HMQNKYIIKQGNSGELVEVLQELLNLKQDGVFGPQTKKAVIAFQQKHKLVADGIVGPMSWRKLNFNPEELF | -0.282
66 | HMQTSETVYTTDKVNVRAGADTSSDKLGSVEKGTSLTRTGTDGDWSIIDYNGTTGYIKSEYLSATAPE | 0.316
67 | HMNAELSTVQAAEVLNVSRPFLIKLLEDGAIPHRKVGKHRRVRMEDVMSYKAAIDTEREAVLDQLAA | -0.722
68 | HMKGLKERLLYFIEYKGLPVQMFEKIVGLSNAAVSKMGDNTRRSTIDKISKSFPELDVNWLLTGQGEMLSY | 0.296
69 | HMSKDQKKFFIEIVSIRGFGSQIGISILNKLSIPQIINAIKTQNKKEISSIPGIGQKMTERLILELNNKFK | -0.691
70 | HMPAVTEQTKTNLRRAFWQLYEQKPIQKITVKQITDLAGYNRGTFYLYFKDVYDLLDDIENK | -0.584
71 | HMTTELDTTAITPIIQKVLKANPDVVAKYKAGQQQVIGFLMGQVMRELSTKPNPKELQSLIVAQLQQA | -0.0703
72 | HMANKTVPNVSGKTVAEARAIIENQSLQVGEEKEEYSDSVAEGYIIRTNPTAGSQKKEQSKIDLVVSKG | -0.211
73 | HMQEIKPEPISDGRVWKEGMWATTPLGIEGQLLSDPDEKGMVQLGYGNMRININIQDLDPSR | -0.207
74 | HMKVLFLESIEGSASMGEIKDVANGYARNFLFPNGFAVPATPKNLKNVEELQAKELEIQTERDNWAA | -0.713
75 | HMRPLISQTLRIDRGEGDIAGPLGVLAKEYPHLSMGSYPFQKDGIYGAHVVIRGSDPGMVEAAMDKLKAAF | -0.0188
76 | HMDRSRAEIDLGHVETAIRTLAEGGMVQEYAIGGRSLKRYKMGELLQLKAELENEINMERRKEKMRQ | 0.184
